Source: article PMC5314801 (Nucleic Acids Research, 2016)

Tests used:
[1] = target: T1, RsaL (crystal) (UniProt Q9X7H4 1-80); assay: X-ray crystallography
T1 sequence: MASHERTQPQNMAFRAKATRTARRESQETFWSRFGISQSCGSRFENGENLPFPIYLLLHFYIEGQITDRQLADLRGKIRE

[2] = target: the molecule itself; assay: crystal structure
[3] = target: the molecule itself; assay: SEC

B1: lasI promoter crystal duplex DNA_F/DNA_R (dsDNA)
DNA 1: AAAAATTATGAAATTTGCATAAATTC
DNA 2: TGAATTTATGCAAATTTCATAATTTT
binding result [1]: binds

B2: RsaL (natural protein, Pseudomonas aeruginosa, UniProt Q9X7H4 1-80, looked up)
chain: MASHERTQPQNMAFRAKATRTARRESQETFWSRFGISQSCGSRFENGENLPFPIYLLLHFYIEGQITDRQLADLRGKIRE
binding result [2]: binds

B3: RsaL^Q38A (natural protein, Pseudomonas aeruginosa, UniProt Q9X7H4 1-80, looked up)
chain: MASHERTQPQNMAFRAKATRTARRESQETFWSRFGISASCGSRFENGENLPFPIYLLLHFYIEGQITDRQLADLRGKIRE
stoichiometry N [3]: 2

B4: RsaL with Glu45 mutated to Ala (natural protein, Pseudomonas aeruginosa, UniProt Q9X7H4 1-80, looked up)
chain: MASHERTQPQNMAFRAKATRTARRESQETFWSRFGISQSCGSRFANGENLPFPIYLLLHFYIEGQITDRQLADLRGKIRE
stoichiometry N [3]: 2

B5: RsaL^Q27A (natural protein, Pseudomonas aeruginosa, UniProt Q9X7H4 1-80, looked up)
chain: MASHERTQPQNMAFRAKATRTARRESAETFWSRFGISQSCGSRFENGENLPFPIYLLLHFYIEGQITDRQLADLRGKIRE
stoichiometry N [3]: 2

B6: RsaL^R43A (natural protein, Pseudomonas aeruginosa, UniProt Q9X7H4 1-80, looked up)
chain: MASHERTQPQNMAFRAKATRTARRESQETFWSRFGISQSCGSAFENGENLPFPIYLLLHFYIEGQITDRQLADLRGKIRE
stoichiometry N [3]: 2

B7: RsaL R20A (natural protein, Pseudomonas aeruginosa, UniProt Q9X7H4 1-80, looked up)
chain: MASHERTQPQNMAFRAKATATARRESQETFWSRFGISQSCGSRFENGENLPFPIYLLLHFYIEGQITDRQLADLRGKIRE
stoichiometry N [3]: 2
